What all share (test): SPR (Biacore), antibody captured on chip, soluble FcγR as analyte, 1:1 Langmuir fit
(SPR reads the build-up and loss of mass on a sensor chip optically.)

Assay [1] has as its target T1, FcγRIIIa F extracellular domain with C-terminal His tag (human, UniProt P08637 17-208).
T1 construct: extracellular domain; Soluble receptor, F158 allotype; also called FcgRIIIa F; FcgRIIIaF; not shown: His tag at the C terminus
The protocol:
(§1) Specifically, H240-Hl134 (SEQ ID NO: 88) resulting from introduction of L234Y/L235Y/G236W/H268D/S298A into H240-Hl033 and H240-Kn132 (SEQ ID NO: 89) resulting from introduction of K326D/A330M/K334E into H240-Kn033 were constructed according to the method described in Reference Example 1.
(§2) Analysis of interaction between objective antibody and the FcγR was carried out using Biacore T100 (GE Healthcare), Biacore T200, Biacore A100, and Biacore 4000. HBS-EP+ (GE Healthcare) was used as the running buffer, and the measurement temperature was set to 25° C. Chips produced by immobilizing the antigen peptide by the amine coupling method to a Series S sensor Chip CM5 (GE Healthcare), chips produced by allowing preliminarily biotinylated antigen peptides to interact with and immobilize onto a Series S Sensor Chip SA (certified) (GE Healthcare), chips produced by immobilizing Protein L (ACTIGEN, BioVision) to Series S Sencor Chip CM5 (GE Healthcare), or chips produced by immobilizing Protein A/G (Thermo Scientific) to Series S Sencor Chip CM5 (GE Healthcare) were used. Antibodies of interest were captured onto these chips, and allowed to interact to each FcγR diluted with running buffer. To regenerate and repeatedly use the chip, the antibodies captured onto the chip were washed off by reacting 10 mM glycine-HCl, pH 1.5.

For assay [2], the target named is T2, FcγRIIIa V extracellular domain with C-terminal His tag (human, UniProt P08637 17-208).
T2 construct: extracellular domain; Soluble receptor, V158 allotype; also called FcgRIIIa V; FcgRIIIaV; not shown: His tag at the C terminus
T2 sequence (P08637 17-208 F176V): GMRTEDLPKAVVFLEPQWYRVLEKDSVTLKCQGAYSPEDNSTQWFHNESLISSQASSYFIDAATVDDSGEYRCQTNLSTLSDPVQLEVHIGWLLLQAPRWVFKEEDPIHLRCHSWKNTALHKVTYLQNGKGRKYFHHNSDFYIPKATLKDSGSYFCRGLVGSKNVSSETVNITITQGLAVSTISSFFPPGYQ
The protocol: as §1, §2

In assay [3] the target is T3, FcγRIa extracellular domain with C-terminal His tag (human, UniProt P12314 16-292).
T3 construct: extracellular domain; Soluble receptor expressed in FreeStyle293 cells; used as analyte in Biacore; also called FcgRIa; FcgRI; not shown: His tag at the C terminus
T3 sequence (P12314 16-292): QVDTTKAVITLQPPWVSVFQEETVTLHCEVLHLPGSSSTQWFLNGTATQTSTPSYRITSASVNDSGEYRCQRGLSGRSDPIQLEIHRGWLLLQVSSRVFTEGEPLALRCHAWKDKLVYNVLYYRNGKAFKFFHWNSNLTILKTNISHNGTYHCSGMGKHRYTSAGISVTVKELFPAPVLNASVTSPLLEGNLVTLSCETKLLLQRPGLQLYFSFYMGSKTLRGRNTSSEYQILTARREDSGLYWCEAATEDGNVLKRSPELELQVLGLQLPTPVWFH
The procedure: as §2

Assay [4] concerns the target T4, FcγRIIa R extracellular domain with C-terminal His tag (human, UniProt P12318 34-217).
T4 construct: extracellular domain; Soluble receptor, R131 allotype; also called FcgRIIa R; FcgRIIaR; not shown: His tag at the C terminus
T4 sequence (looked up): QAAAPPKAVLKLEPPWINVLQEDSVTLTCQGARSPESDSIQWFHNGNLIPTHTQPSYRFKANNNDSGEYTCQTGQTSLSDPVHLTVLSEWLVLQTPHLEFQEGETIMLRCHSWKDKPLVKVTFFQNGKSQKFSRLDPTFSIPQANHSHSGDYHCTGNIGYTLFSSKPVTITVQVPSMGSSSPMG
The procedure: as §2

Assay [5] addresses T1, FcγRIIIa F extracellular domain with …. The procedure: as §2
This is another data set of the same source.

Assay [6] concerns the target T5, FcγRIIb extracellular domain with C-terminal His tag (human, UniProt P31994 43-217).
T5 construct: extracellular domain; also called FcgRIIb; CD32B; not shown: His tag at the C terminus
T5 sequence (looked up): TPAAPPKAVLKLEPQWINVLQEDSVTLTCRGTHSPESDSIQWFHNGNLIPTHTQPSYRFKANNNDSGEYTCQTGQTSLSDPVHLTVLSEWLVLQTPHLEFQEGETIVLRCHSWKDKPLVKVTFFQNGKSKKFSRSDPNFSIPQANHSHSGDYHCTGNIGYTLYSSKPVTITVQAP
The procedure: as §2

Assay [7] deals with T6, FcγRIIa H extracellular domain with C-terminal His tag (human, UniProt P12318 34-217).
T6 construct: extracellular domain; Soluble receptor, H131 allotype; also called FcgRIIa H; FcgRIIaH; not shown: His tag at the C terminus
T6 sequence (looked up): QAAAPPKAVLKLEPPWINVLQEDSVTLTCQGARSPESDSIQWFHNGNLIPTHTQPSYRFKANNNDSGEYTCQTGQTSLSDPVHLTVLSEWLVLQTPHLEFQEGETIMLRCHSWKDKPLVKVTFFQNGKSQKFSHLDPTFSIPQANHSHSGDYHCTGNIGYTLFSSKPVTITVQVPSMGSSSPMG
The protocol:
as §2

Assay [8] deals with T2, FcγRIIIa V extracellular domain with …. The procedure:
as §2
This is another data set of the same source.

Read-outs that look alike come from different tables or passages of the source.

T1 sequence (P08637 17-208): as the sequence (P08637 17-208 F176V) above, with V160F counted along it

B1: H240-Kn061/H240-Hl071/L73-k0 (antibody, human IgG1, kappa)
heavy 1: QDQLVQSGAEVKKPGASVKVSCKASGFNIKDTYIQWVRQAPGQGLEWMGRIDPLRKQTKYREKFEGRVTITADTSTNTAYMELSSLRSEDTAVYYCVRSGREFDYWGQGTLVTVSSASTKGPSVFPLAPSSKSTSGGTAALGCLVKDYFPEPVTVSWNSGALTSGVHTFPAVLQSSGLYSLSSVVTVPSSSLGTQTYICNVNHKPSNTKVDKKVEPKSCDKTHTCPPCPAPEYYWGPSVFLFPPKPKDTLMISRTPEVTCVVVDVSDEDPEVKFNWYVDGVEVHNAKTKPREEQYNATYRVVSVLTVLHQDWLNGKEYKCKVSNKALPAPIEKTISKAKGQPREPQVCTLPPSRDELTKNQVSLWCLVKGFYPSDIAVEWESNGQPENNYKTTPPVLDSDGSFFLYSKLTVDKSRWQQGNVFSCSVMHEALHNHYTQKSLSLSP
heavy 2: QDQLVQSGAEVKKPGASVKVSCKASGFNIKDTYIQWVRQAPGQGLEWMGRIDPLRKQTKYREKFEGRVTITADTSTNTAYMELSSLRSEDTAVYYCVRSGREFDYWGQGTLVTVSSASTKGPSVFPLAPSSKSTSGGTAALGCLVKDYFPEPVTVSWNSGALTSGVHTFPAVLQSSGLYSLSSVVTVPSSSLGTQTYICNVNHKPSNTKVDKKVEPKSCDKTHTCPPCPAPELLGGPSVFLFPPKPKDTLMISRTPEVTCVVVDVSHEDPEVKFNWYVDGVEVHNAKTKPREEQYNSTYRVVSVLTVLHQDWLNGKEYKCKVSNDALPMPIEETISKAKGQPREPQVYTLPPSRCELTKNQVSLSCAVKGFYPSDIAVEWESNGQPENNYKTTPPVLDSDGSFFLVSKLTVDKSRWQQGNVFSCSVMHEALHNHYTQKSLSLSP
light: DIQMTQSPSSLSASVGDRVTITCRASQDIHKYIAWYQQKPGQAPRLLIQYTSTLQPGVPSRFSGSGSGTDYTFTISSLQPEDIATYYCLQYEQLRTFGGGTKVEIKRTVAAPSVFIFPPSDEQLKSGTASVVCLLNNFYPREAKVQWKVDNALQSGNSQESVTEQDSKDSTYSLSSTLTLSKADYEKHKVYACEVTHQGLSSPVTKSFNRGEC
notes: Heterodimerized anti-epiregulin IgG1, knobs-into-holes
By Kd is commonly meant a measure of binding affinity in units of concentration. The low end stands for tighter binding, the high end for weaker binding. B1: the Kd in assay [1] amounted to 5.1 nM; in assay [2], 1.8 nM; in assay [3], 0.14 nM; in assay [4] it was 350 nM; in assay [5], 5.1 nM; in assay [6], 1200 nM. Besides, the Kd turned out to be 280 nM in assay [7] and 1.8 nM in assay [8].

These data come from patent publication US20150344570A1 (published 2015).
